In patent US20060280804A1 (CONSEJO SUPERIOR DE INVESTIGACIONES CIENTIFCAS, published 2006):

T1: angiotensin converting enzyme (ACE, EC 3.4.15.1, Sigma)
T1 sequence (P12822 whole entry, species assumed, looked up): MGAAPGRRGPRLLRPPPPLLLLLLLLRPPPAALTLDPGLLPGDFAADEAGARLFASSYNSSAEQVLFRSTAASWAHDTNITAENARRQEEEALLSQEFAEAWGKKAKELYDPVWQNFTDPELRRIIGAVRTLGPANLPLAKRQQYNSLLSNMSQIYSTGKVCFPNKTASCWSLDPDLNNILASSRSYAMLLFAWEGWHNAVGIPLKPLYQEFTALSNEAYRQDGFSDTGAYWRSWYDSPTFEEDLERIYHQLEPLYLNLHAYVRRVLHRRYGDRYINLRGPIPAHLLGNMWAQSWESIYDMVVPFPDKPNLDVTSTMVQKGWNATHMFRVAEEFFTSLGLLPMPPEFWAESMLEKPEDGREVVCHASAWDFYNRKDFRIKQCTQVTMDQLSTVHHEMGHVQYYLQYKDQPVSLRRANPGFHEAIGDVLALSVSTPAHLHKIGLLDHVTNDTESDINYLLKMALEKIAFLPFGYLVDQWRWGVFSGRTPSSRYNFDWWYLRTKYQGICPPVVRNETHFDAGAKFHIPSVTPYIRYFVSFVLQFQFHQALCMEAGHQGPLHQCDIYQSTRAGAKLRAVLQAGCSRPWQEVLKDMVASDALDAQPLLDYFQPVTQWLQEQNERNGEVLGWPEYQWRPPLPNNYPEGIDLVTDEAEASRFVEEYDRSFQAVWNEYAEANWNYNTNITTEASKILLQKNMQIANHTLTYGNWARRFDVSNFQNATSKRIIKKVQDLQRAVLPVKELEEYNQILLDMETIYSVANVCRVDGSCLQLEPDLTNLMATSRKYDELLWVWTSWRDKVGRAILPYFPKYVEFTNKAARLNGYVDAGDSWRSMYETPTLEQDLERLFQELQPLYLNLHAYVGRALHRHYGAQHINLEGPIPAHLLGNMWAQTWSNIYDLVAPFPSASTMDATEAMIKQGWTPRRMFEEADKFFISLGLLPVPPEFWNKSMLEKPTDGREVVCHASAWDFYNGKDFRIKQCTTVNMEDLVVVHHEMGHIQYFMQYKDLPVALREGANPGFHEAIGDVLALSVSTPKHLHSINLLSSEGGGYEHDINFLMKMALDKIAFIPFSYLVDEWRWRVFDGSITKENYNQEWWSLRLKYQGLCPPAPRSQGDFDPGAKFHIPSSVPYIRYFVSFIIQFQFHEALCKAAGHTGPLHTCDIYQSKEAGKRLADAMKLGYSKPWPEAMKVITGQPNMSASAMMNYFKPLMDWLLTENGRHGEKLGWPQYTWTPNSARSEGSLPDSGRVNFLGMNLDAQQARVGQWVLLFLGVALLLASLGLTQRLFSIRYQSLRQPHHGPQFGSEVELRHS


target: T1, angiotensin converting enzyme (ACE, EC …); assay: cell-based or functional assay

Going from YAEERYPIL [YAEERYPIL (SEQ. ID. No 6), synthetic peptide, ovalbumin 106-114] to ESIINF [ESIINF, synthetic peptide, ovalbumin 256-261], the “ACEI activity, IC50” value rises from 4.7 µM to > 1000 µM.

Going from VLLPDEVSGL [VLLPDEVSGL, synthetic peptide, ovalbumin 243-252] to SALAM [SALAM (SEQ. ID. No 8), synthetic peptide, ovalbumin 36-40], the “ACEI activity, IC50” value falls from > 1000 µM to 229 µM.

Going from YRGGLEPINF [YRGGLEPINF, synthetic peptide, ovalbumin 125-134] to RADHPFL [RADHPFL (SEQ. ID. No 3), synthetic peptide, ovalbumin 359-365], the “ACEI activity, IC50” value falls from > 1000 µM to 6.2 µM.

First: RDILNQ [RDILNQ (SEQ. ID. No 7), synthetic peptide, ovalbumin 84-89]
Second: ELIN [ELIN, synthetic peptide, ovalbumin 144-147]
The “ACEI activity, IC50” value of the first is lower: 436 µM for the first, > 1000 µM for the second.

With YQIGL [YQIGL (SEQ. ID. No 1), synthetic peptide, ovalbumin 212-216] the “ACEI activity, IC50” value was 174 µM.
